Test results as given in publication PMC11326279 (bioRxiv, 2024).

Biological target: FtsH with a C-terminal FLAG epitope, chromosomally encoded (E. coli, UniProt P0AAI3 1-644)
Test: cryo-EM structure

Sequence of FtsH with a C-terminal FLAG epitope, chromosomally encoded (P0AAI3 whole entry): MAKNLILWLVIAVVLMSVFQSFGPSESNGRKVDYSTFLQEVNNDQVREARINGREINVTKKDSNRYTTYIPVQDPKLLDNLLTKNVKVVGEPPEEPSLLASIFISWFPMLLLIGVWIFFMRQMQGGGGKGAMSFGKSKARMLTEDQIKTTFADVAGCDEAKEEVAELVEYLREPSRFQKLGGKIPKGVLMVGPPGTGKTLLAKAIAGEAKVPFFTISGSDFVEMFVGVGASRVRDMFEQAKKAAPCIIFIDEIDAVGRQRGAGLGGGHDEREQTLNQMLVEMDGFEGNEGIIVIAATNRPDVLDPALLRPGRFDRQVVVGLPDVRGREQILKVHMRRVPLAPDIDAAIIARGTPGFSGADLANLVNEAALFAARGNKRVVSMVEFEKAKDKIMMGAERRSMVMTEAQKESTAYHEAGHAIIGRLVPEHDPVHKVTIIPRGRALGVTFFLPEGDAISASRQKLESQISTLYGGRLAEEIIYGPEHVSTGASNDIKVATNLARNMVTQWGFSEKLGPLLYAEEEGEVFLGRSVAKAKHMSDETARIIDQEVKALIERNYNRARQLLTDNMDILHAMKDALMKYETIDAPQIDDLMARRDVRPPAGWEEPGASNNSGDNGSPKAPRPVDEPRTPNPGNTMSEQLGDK

binding result	Binder
binds	HflK, endogenous (natural protein, E. coli (endogenous in BL21(DE3)), UniProt P0ABC7 1-419, looked up) MAWNQPGNNGQDRDPWGSSKPGGNSEGNGNKGGRDQGPPDLDDIFRKLSKKLGGLGGGKGTGSGGGSSSQGPRPQLGGRVVTIAAAAIVIIWAASGFYTIKEAERGVVTRFGKFSHLVEPGLNWKPTFIDEVKPVNVEAVRELAASGVMLTSDENVVRVEMNVQYRVTNPEKYLYSVTSPDDSLRQATDSALRGVIGKYTMDRILTEGRTVIRSDTQRELEETIRPYDMGITLLDVNFQAARPPEEVKAAFDDAIAARENEQQYIREAEAYTNEVQPRANGQAQRILEEARAYKAQTILEAQGEVARFAKLLPEYKAAPEITRERLYIETMEKVLGNTRKVLVNDKGGNLMVLPLDQMLKGGNAPAAKSDNGASNLLRLPPASSSTTSGASNTSSTSQGDIMDQRRANAQRNDYQRQGE
binds	HflC, endogenous (natural protein, E. coli (endogenous in BL21(DE3)), UniProt P0ABC3 1-334, looked up) MRKSVIAIIIIVLVVLYMSVFVVKEGERGITLRFGKVLRDDDNKPLVYEPGLHFKIPFIETVKMLDARIQTMDNQADRFVTKEKKDLIVDSYIKWRISDFSRYYLATGGGDISQAEVLLKRKFSDRLRSEIGRLDVKDIVTDSRGRLTLEVRDALNSGSAGTEDEVTTPAADNAIAEAAERVTAETKGKVPVINPNSMAALGIEVVDVRIKQINLPTEVSEAIYNRMRAEREAVARRHRSQGQEEAEKLRATADYEVTRTLAEAERQGRIMRGEGDAEAAKLFADAFSKDPDFYAFIRSLRAYENSFSGNQDVMVMSPDSDFFRYMKTPTSATR
